Assay results from the supplement of paper PMC9112550, “Optimization of the antimicrobial peptide Bac7 by deep mutational scanning” (BMC Biology, 2022).

Tested on: Escherichia coli TOP10
Experiment: shrunken log2 fold change of peptide-encoding DNA abundance (4.5 h post-induction vs induction); higher = less antimicrobial activity (less host growth inhibition)
Conditions: time post-induction: 4.5 h; library: site-saturation at positions 5, 18, 19, 20
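Also: peptides expressed intracellularly from a pBAD plasmid library in pooled LB shake-flask culture, induced with 0.3% L-arabinose, DNA abundance read by NGS, three biological replicates, DESeq2 with apeglm shrinkage.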

| Sequence | shrunken log2 fold change |
| --- | --- |
| RRIRSRPPRLPRPRPRPQDMPRP | 0.035 |
| RRIRTRPPRLPRPRPRPDYNPRP | -0.0768 |
| RRIRYRPPRLPRPRPRPLCIPRP | -1.22 |
| RRIRYRPPRLPRPRPRPYLKPRP | -0.478 |
| RRIRKRPPRLPRPRPRPTWYPRP | -0.0991 |
| RRIRFRPPRLPRPRPRPRSYPRP | -0.268 |
| RRIRFRPPRLPRPRPRPLGWPRP | 0.494 |
| RRIRHRPPRLPRPRPRPISCPRP | -0.0318 |
| RRIRDRPPRLPRPRPRPNSLPRP | 0.0174 |
| RRIRHRPPRLPRPRPRPNDHPRP | -0.499 |
| RRIRNRPPRLPRPRPRPSGDPRP | -0.252 |
| RRIRDRPPRLPRPRPRPPYGPRP | -0.0609 |
| RRIRLRPPRLPRPRPRPTRVPRP | 0.389 |
| RRIRFRPPRLPRPRPRPNAHPRP | 0.0459 |
| RRIRHRPPRLPRPRPRPFERPRP | -0.128 |
| RRIRYRPPRLPRPRPRPRHSPRP | -0.127 |
| RRIRERPPRLPRPRPRPWKYPRP | -0.0185 |
| RRIRYRPPRLPRPRPRPESEPRP | -0.0162 |
| RRIRWRPPRLPRPRPRPGPNPRP | 0.194 |
| RRIRDRPPRLPRPRPRPIFIPRP | -0.345 |
| RRIRKRPPRLPRPRPRPYMVPRP | -0.211 |
| RRIRERPPRLPRPRPRPNCYPRP | -0.342 |
| RRIRRRPPRLPRPRPRPQTHPRP | 0.361 |
| RRIRPRPPRLPRPRPRPYHHPRP | -0.655 |
| RRIRQRPPRLPRPRPRPVMAPRP | -0.38 |

| Sequence | shrunken log2 fold change |
| --- | --- |
| RRIRIRPPRLPRPRPRPWMTPRP | -0.53 |
| RRIRTRPPRLPRPRPRPKLAPRP | 0.163 |
| RRIRGRPPRLPRPRPRPMDHPRP | -0.137 |
| RRIRERPPRLPRPRPRPFRQPRP | 0.198 |
| RRIRSRPPRLPRPRPRPRFIPRP | 0.00415 |
| RRIRNRPPRLPRPRPRPYWLPRP | -0.55 |
| RRIRERPPRLPRPRPRPVDCPRP | 0.0769 |
| RRIRIRPPRLPRPRPRPPFCPRP | -0.256 |
| RRIRLRPPRLPRPRPRPAHYPRP | -0.147 |
| RRIRHRPPRLPRPRPRPHFHPRP | -0.648 |
| RRIRNRPPRLPRPRPRPASAPRP | 0.0499 |
| RRIRHRPPRLPRPRPRPKFFPRP | -0.0649 |
| RRIRPRPPRLPRPRPRPPKWPRP | 0.469 |
| RRIRKRPPRLPRPRPRPKGHPRP | 0.123 |
| RRIRRRPPRLPRPRPRPQDMPRP | 0.0973 |
| RRIRMRPPRLPRPRPRPTDWPRP | 1.27 |
| RRIRCRPPRLPRPRPRPEDTPRP | -0.146 |
| RRIRARPPRLPRPRPRPCPFPRP | -0.154 |
| RRIRYRPPRLPRPRPRPFWWPRP | -0.102 |
| RRIRERPPRLPRPRPRPDVHPRP | -0.435 |
| RRIRKRPPRLPRPRPRPKLLPRP | -0.158 |
| RRIRNRPPRLPRPRPRPNVRPRP | -0.243 |
| RRIRPRPPRLPRPRPRPNPDPRP | 0.0105 |
| RRIRPRPPRLPRPRPRPIPMPRP | -0.0493 |
| RRIRWRPPRLPRPRPRPPIYPRP | 0.0337 |

| Sequence | shrunken log2 fold change |
| --- | --- |
| RRIRYRPPRLPRPRPRPCCEPRP | -0.567 |
| RRIRLRPPRLPRPRPRPEHPPRP | -0.00635 |
| RRIRHRPPRLPRPRPRPQAVPRP | 0.00884 |
| RRIRRRPPRLPRPRPRPRKAPRP | 0.885 |
| RRIRLRPPRLPRPRPRPQNHPRP | -0.683 |
| RRIRCRPPRLPRPRPRPIQSPRP | 0.0164 |
| RRIRNRPPRLPRPRPRPRPWPRP | 0.116 |
| RRIRGRPPRLPRPRPRPCAVPRP | 0.66 |
| RRIRMRPPRLPRPRPRPDEYPRP | 1.62 |
| RRIRNRPPRLPRPRPRPTMPPRP | 0.0915 |
| RRIRPRPPRLPRPRPRPTIIPRP | -0.65 |
| RRIRRRPPRLPRPRPRPVLPPRP | 0.584 |
| RRIRQRPPRLPRPRPRPSNNPRP | -0.729 |
| RRIRLRPPRLPRPRPRPCPQPRP | -0.391 |
| RRIRARPPRLPRPRPRPGANPRP | 0.589 |
| RRIRVRPPRLPRPRPRPTTRPRP | 0.293 |
| RRIRKRPPRLPRPRPRPSLCPRP | -0.239 |
| RRIRPRPPRLPRPRPRPFIQPRP | -0.671 |
| RRIRSRPPRLPRPRPRPKACPRP | -0.253 |
| RRIRDRPPRLPRPRPRPCRAPRP | -0.221 |
| RRIRTRPPRLPRPRPRPQQFPRP | -0.0175 |
| RRIRDRPPRLPRPRPRPWMAPRP | -0.499 |
| RRIRFRPPRLPRPRPRPFCAPRP | -0.102 |
| RRIRGRPPRLPRPRPRPPPKPRP | 1.7 |
| RRIRSRPPRLPRPRPRPSSIPRP | -0.379 |
